Results as given in PMC5386471.

Molecular target: Flag-ACRP-hCD40L

Work on “GPI-anchored CD40 ectodomain (from UniProt P25942 21-193)” yielded an amount of transfected CD40-GPI plasmid sufficient to inhibit 50% of CD40-induced NF-κB response (luciferase reporter, 293T cells; CD40L here from 1 ng of co-transfected plasmid) of 1.4 ng.
